± gives the uncertainty stated by the source.
Test: self-splicing fitness, log relative to wild type (ln ratio); higher = more splicing; Tetrahymena group I intron in knt gene, E. coli kanamycin selection, DiMSum; sequences stand for … in CUCUCU…GGAGGGAAAAGUUAUCAGGCAUGCACCUGGUAGCUAGUCUUUAAACCAAUAGAUUGCAUCGGUUUAAAAGGCAAGACCGUCAAAUUGCGGGAAAGGGGUCAACAGCCGUUCAGUACCAAGUCUCAGGGGAAACUUUGAGAUGGCCUUGCAAAGGGUAUGGUAAUAAGCUGACGGACAUGGUCCUAACCACGCAGCCAAGUCCUAAGUCAACAGAUCUUCUGUUGAUAUGGAUGCAGUUCACAGACUAAAUGUCGGUCGGGGAAGAUGUAUUCUUCUCAUAAGAUAUAGUCGGACCUCUCCUUAAUGGGAGCUAGCGGAUGAAGUGAUGCAACACUGGAGCCGCUGGGAACUAAUUUGUAUGCGAAAGUAUAUUGAUUAGUUUUGGAGUACUCGUGGUCG
Summary of the method: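 Six replicate transformations of E. coli BL21(DE3) with a pET-22b(+) library were grown overnight at 37°C or 30°C. The library randomised all eight P1ex-region intron nucleotides, the intron lying in the knt kanamycin-resistance gene, and plates were LB agar with or without 25 μg/mL kanamycin plus 100 μg/mL carbenicillin, 50 μM IPTG and 0.2% rhamnose. Pooled colonies were amplicon-sequenced on an Illumina HiSeq 2500, and fitness is the DiMSum error-weighted combination of wild-type-normalised replicate fold changes, kanamycin versus none.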

Row | Sequence | self-splicing fitness (ln) (30 °C) | self-splicing fitness (ln) (37 °C)
1 | GUCGAGCAAUAUUACGUGUG | -0.922 ± 0.12 | -0.585 ± 0.17
2 | GUCGAGCAAUAUUACGUUAG | -2.95 ± 0.27 | -1.2 ± 0.2
3 | GUCGAGCAAUAUUACGUUGA | -2.98 ± 0.16 | -3.79 ± 0.34
4 | GUCGAGCAAUAUUACGUUGG | -1.9 ± 0.16 | -2.95 ± 0.47
5 | GUCUAGCAAUAUUACGAGUA | -1.19 ± 0.21 | -1.39 ± 0.22
6 | GUCUAGCAAUAUUACGAUAC | 0.218 ± 0.22 | -0.815 ± 0.22
7 | GUCUAGCAAUAUUACGAUGU | -1.11 ± 0.074 | 0.257 ± 0.086
8 | GUCUAGCAAUAUUACGAUUG |  | -2.14 ± 0.26
9 | GUCUAGCAAUAUUACGCACG | -1.27 ± 0.18 | -1.14 ± 0.18
10 | GUCUAGCAAUAUUACGCAUG | -0.786 ± 0.1 | -0.64 ± 0.16
11 | GUCUAGCAAUAUUACGCUAA | -0.815 ± 0.091 | 0.163 ± 0.093
12 | GUCUAGCAAUAUUACGGCAA | -1.61 ± 0.25 | 0.441 ± 0.17
13 | GUCUAGCAAUAUUACGGGGU | -3.56 ± 0.19 | -2.04 ± 0.13
14 | GUCUAGCAAUAUUACGUAAG | -1.02 ± 0.099 | -0.654 ± 0.13
15 | GUCUAGCAAUAUUACGUGAU | -1.04 ± 0.09 | -0.766 ± 0.1
16 | GUCUAGCAAUAUUACGUGCG | -1.76 ± 0.11 | -1.27 ± 0.12
17 | GUCUAGCAAUAUUACGUGGG | -2.01 ± 0.12 | -1.64 ± 0.16
18 | GUCUAGCAAUAUUACGUGGU | -2.5 ± 0.09 | -0.907 ± 0.078
19 | GUCUAGCAAUAUUACGUUAA | -0.894 ± 0.097 | -0.331 ± 0.094
20 | GUGAAGCAAUAUUACGACAA | 0.0822 ± 0.12 | 0.396 ± 0.16
21 | GUGAAGCAAUAUUACGACGA | 0.184 ± 0.15 | 0.158 ± 0.22
22 | GUGAAGCAAUAUUACGAGGC | -2.59 ± 0.25 | -1.1 ± 0.22
23 | GUGAAGCAAUAUUACGAUCC | -3.08 ± 0.31 | 0.244 ± 0.18
24 | GUGAAGCAAUAUUACGAUUG | -1.38 ± 0.11 | -1.78 ± 0.14
25 | GUGAAGCAAUAUUACGCAAC | -2.59 ± 0.17 | -2.08 ± 0.22

Row | Sequence | self-splicing fitness (ln) (30 °C) | self-splicing fitness (ln) (37 °C)
26 | GUGAAGCAAUAUUACGCACA | 0.0998 ± 0.15 | 0.512 ± 0.18
27 | GUGAAGCAAUAUUACGCACG | -0.996 ± 0.12 | -0.777 ± 0.13
28 | GUGAAGCAAUAUUACGCAUA | -0.646 ± 0.15 | -0.0533 ± 0.17
29 | GUGAAGCAAUAUUACGCCGC | -2.25 ± 0.16 | -1.5 ± 0.26
30 | GUGAAGCAAUAUUACGCCUG | -0.422 ± 0.091 | 0.015 ± 0.13
31 | GUGAAGCAAUAUUACGCGUA | -0.298 ± 0.14 | 0.0699 ± 0.14
32 | GUGAAGCAAUAUUACGCUCU | -1.79 ± 0.12 | -0.652 ± 0.13
33 | GUGAAGCAAUAUUACGGAUA | -1.37 ± 0.096 | -1.13 ± 0.1
34 | GUGAAGCAAUAUUACGGCCG | -1.03 ± 0.13 | -0.435 ± 0.17
35 | GUGAAGCAAUAUUACGGCGC | -0.501 ± 0.17 | -0.89 ± 0.14
36 | GUGAAGCAAUAUUACGGGAC | -1.8 ± 0.12 | -0.623 ± 0.13
37 | GUGAAGCAAUAUUACGGUAA | -0.519 ± 0.073 | -0.169 ± 0.1
38 | GUGAAGCAAUAUUACGUAUC | -1.08 ± 0.059 | 0.384 ± 0.068
39 | GUGAAGCAAUAUUACGUCAC |  | -2.47 ± 0.48
40 | GUGAAGCAAUAUUACGUCAU | -3.04 ± 0.2 | -2.68 ± 0.28
41 | GUGAAGCAAUAUUACGUCUA | 0.147 ± 0.049 | 0.251 ± 0.066
42 | GUGAAGCAAUAUUACGUGUG | -0.934 ± 0.089 | -0.737 ± 0.11
43 | GUGAAGCAAUAUUACGUUAU | -1.15 ± 0.08 | -1.2 ± 0.11
44 | GUGAAGCAAUAUUACGUUCA | -1.45 ± 0.078 | -0.809 ± 0.09
45 | GUGAAGCAAUAUUACGUUCU | -0.0481 ± 0.072 | -0.218 ± 0.086
46 | GUGAAGCAAUAUUACGUUGA | -1.56 ± 0.078 | -0.398 ± 0.093
47 | GUGCAGCAAUAUUACGACAU | -0.587 ± 0.013 | -0.143 ± 0.032
48 | GUGCAGCAAUAUUACGACCC | -0.76 ± 0.13 | 0.132 ± 0.18
49 | GUGCAGCAAUAUUACGAGAU | -3.67 ± 0.2 | -1.98 ± 0.19
50 | GUGCAGCAAUAUUACGAGUU | -2.49 ± 0.15 | -1.62 ± 0.15

Row | Sequence | self-splicing fitness (ln) (30 °C) | self-splicing fitness (ln) (37 °C)
51 | GUGCAGCAAUAUUACGCCAA | -1.41 ± 0.14 | -1.72 ± 0.14
52 | GUGCAGCAAUAUUACGCUCG | -0.5 ± 0.091 | -0.883 ± 0.13
53 | GUGCAGCAAUAUUACGGGAA | -3.67 ± 0.25 | -1.9 ± 0.13
54 | GUGCAGCAAUAUUACGGGGG | -4.19 ± 0.23 | -2.58 ± 0.18
55 | GUGCAGCAAUAUUACGUAUU | -1.7 ± 0.1 | -1.78 ± 0.12
56 | GUGCAGCAAUAUUACGUUCA | 0.191 ± 0.072 | -0.181 ± 0.081
57 | GUGGAGCAAUAUUACGAACU | -0.836 ± 0.28 | -1.14 ± 0.42
58 | GUGGAGCAAUAUUACGACAU | -2.402 ± 0.022 | -1.48 ± 0.038
59 | GUGGAGCAAUAUUACGAGUC |  | -2.24 ± 0.31
60 | GUGGAGCAAUAUUACGCAAU | -1.83 ± 0.1 | -1.25 ± 0.13
61 | GUGGAGCAAUAUUACGCAUG | -3.81 ± 0.21 | -1.8 ± 0.15
62 | GUGGAGCAAUAUUACGCCGU | 0.631 ± 0.42 | -1.15 ± 0.37
63 | GUGGAGCAAUAUUACGCGCG | -1.79 ± 0.25 | -2.11 ± 0.31
64 | GUGGAGCAAUAUUACGCUCC | -1.83 ± 0.35 | 
65 | GUGGAGCAAUAUUACGGAUC | -1.1 ± 0.25 | -0.583 ± 0.21
66 | GUGGAGCAAUAUUACGGCCG | -3.44 ± 0.28 | -2.03 ± 0.22
67 | GUGGAGCAAUAUUACGGCGU | -1.29 ± 0.26 | -0.557 ± 0.48
68 | GUGGAGCAAUAUUACGGGAG | -3.74 ± 0.37 | -1.8 ± 0.3
69 | GUGGAGCAAUAUUACGGGCC |  | -0.665 ± 0.48
70 | GUGGAGCAAUAUUACGGUCG | -4.21 ± 0.43 | -1.5 ± 0.45
71 | GUGGAGCAAUAUUACGGUGC | -2.76 ± 0.24 | -1.93 ± 0.25
72 | GUGGAGCAAUAUUACGUCAU | -4.2 ± 0.32 | -3.24 ± 0.33
73 | GUGGAGCAAUAUUACGUCGU | -1.65 ± 0.21 | -1.48 ± 0.26
74 | GUGGAGCAAUAUUACGUGAA |  | -0.49 ± 0.28
75 | GUGGAGCAAUAUUACGUUCG | -1.45 ± 0.2 | -0.499 ± 0.25

Row | Sequence | self-splicing fitness (ln) (30 °C) | self-splicing fitness (ln) (37 °C)
76 | GUGGAGCAAUAUUACGUUGG | -3.39 ± 0.28 | -3.36 ± 0.43
77 | GUGUAGCAAUAUUACGAAAA | -2.71 ± 0.4 | -1.51 ± 0.29
78 | GUGUAGCAAUAUUACGACGG | -3.88 ± 0.31 | -0.904 ± 0.15
79 | GUGUAGCAAUAUUACGACUC | -0.267 ± 0.15 | -0.0849 ± 0.21
80 | GUGUAGCAAUAUUACGAUAG | -3.84 ± 0.27 | -0.946 ± 0.19
81 | GUGUAGCAAUAUUACGAUUG | -4.18 ± 0.3 | -2.18 ± 0.2
82 | GUGUAGCAAUAUUACGCAAC |  | -0.636 ± 0.23
83 | GUGUAGCAAUAUUACGCGGC | -2.8 ± 0.29 | -0.745 ± 0.23
84 | GUGUAGCAAUAUUACGCGUC | -3.17 ± 0.21 | -0.598 ± 0.14
85 | GUGUAGCAAUAUUACGGACG | -0.958 ± 0.14 | -1.32 ± 0.17
86 | GUGUAGCAAUAUUACGGAGG | -3.89 ± 0.29 | -2.67 ± 0.22
87 | GUGUAGCAAUAUUACGGUCU | -1.6 ± 0.2 | 0.619 ± 0.2
88 | GUGUAGCAAUAUUACGGUGU | -2.26 ± 0.16 | -0.0252 ± 0.14
89 | GUGUAGCAAUAUUACGUAGA | -3.14 ± 0.25 | -1.8 ± 0.36
90 | GUGUAGCAAUAUUACGUCCA | -1.74 ± 0.38 | -0.639 ± 0.39
91 | GUGUAGCAAUAUUACGUGCC | -3.46 ± 0.35 | -2.7 ± 0.32
92 | GUGUAGCAAUAUUACGUUAC |  | -2.56 ± 0.35
93 | GUUAAGCAAUAUUACGACAU | -0.0837 ± 0.013 | 0.118 ± 0.033
94 | GUUAAGCAAUAUUACGACGU | -0.121 ± 0.059 | 0.426 ± 0.069
95 | GUUAAGCAAUAUUACGACUU | 0.183 ± 0.11 | 0.278 ± 0.13
96 | GUUAAGCAAUAUUACGAGGC | -3.2 ± 0.28 | -1.34 ± 0.3
97 | GUUAAGCAAUAUUACGAUAA | -1.48 ± 0.18 | -0.923 ± 0.2

— the supplement of paper PMC7877785
